Laboratory results from paper PMC5951847, “Substrate sequence selectivity of APOBEC3A implicates intra-DNA interactions”.

Biological target: A3A(E72A) (Homo sapiens, UniProt P31941 1-199, E72A)
Test: fluorescence anisotropy; pH 6.0; 50 mM MES pH 6.0, 100 mM NaCl, 0.5 mM TCEP, room temperature overnight, 10 nM TAMRA-oligo; competition with 300 nM A3A(E72A); pH series: acetate 4.0-5.0, MES 5.5-6.5, HEPES 7.0-8.0, Tris 8.5-9.0
Details: protein: recombinant; tags: His6-SUMO removed by Ulp1 (untagged); label: 5' TAMRA; hairpin

A3A(E72A), sequence (P31941 whole entry E72A): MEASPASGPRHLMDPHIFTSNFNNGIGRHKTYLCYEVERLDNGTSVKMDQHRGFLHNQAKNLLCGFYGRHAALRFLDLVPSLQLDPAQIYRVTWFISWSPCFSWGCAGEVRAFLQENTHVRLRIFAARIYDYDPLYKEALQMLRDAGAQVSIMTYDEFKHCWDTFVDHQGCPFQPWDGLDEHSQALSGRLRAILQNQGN

Binder: GCCATCATTCGATGGG (structured_DNA) [Hairpin-TTC]
- Kd: 26 ± 2 nM
